1 molecule from publication PMC3139429 can be followed below.

Series [1] has as its target MA (unmyristoylated matrix) (HIV-1, UniProt P12493 2-132). In words: fluorescence anisotropy. (In fluorescence polarisation assays a small probe gives low polarisation when free and higher when bound to something large.)
Series [2] addresses MyrMA (myristoylated matrix) (HIV-1, UniProt P12493 2-132). In words: fluorescence anisotropy.

The Kd is the concentration at which binding is half-saturated. Regarding GGACAGGAAUUAAUAGUAGCUGUCC (structured_RNA) [FITC-Sel25], the Kd in series [1] was found to be 1030 ± 80 nM; in series [2], 813 ± 74 nM.
